Source: patent US20260202410A1 (NORDIC BIOSCIENCE A S, published 2026)

T1: elongated peptide QRAFNKGPDPG
T1 construct: also called elongated selection peptide
T1 peptide: QRAFNKGPDPG

T2: truncated peptide QRAFNKGPD
T2 construct: also called truncated selection peptide
T2 peptide: QRAFNKGPD

T3: non-sense coating and standard peptide DQAAGGLRQH
T3 construct: also called non-sense peptide; non-sense standard peptide
T3 peptide: DQAAGGLRQH

B1: monoclonal antibody clone NBH313 #46 9H11-1D9-2B6 (antibody, V domains shown)
VH: EVQLVESGGGLVQPKGSLKLSCAASGFTFNIYTMNWVRQAPGKGLEWVARIRSKSENYATYYADSVKDRFTISRDDSQSILYLQMNNLKTEDTAIYYCVRQGIYYDYYGAMDYWGQGTSVTVSS
VL: NIMMTQSPSSLAVSAGEKATMSCKSSQSLLYSSNQMNYLAWYQQKPGQSPKLLIYWASTRESDVPDRFTGSGSGTDFTLTISSVQTEDLAVYYCHQYFSSRTFGGGTKLEIKR
notes: Mouse (Balb/C) hybridoma monoclonal antibody; also called PRO-C9 antibody; the mAb
B2: standard peptide QRAFNKGPDP (PRO-C9 target sequence, C-terminus of type IX collagen alpha-1 chain) (peptide)
peptide: QRAFNKGPDP
notes: Synthetic peptide from Genscript with a free C-terminus; also called selection peptide

Assays:
[1] = molecular target: B2; assay: ELISA screening of hybridoma clones
Method: An indirect ELISA performed on streptavidin-coated plates was used for the screening of supernatant reactivity. Biotin-[…] was used as screening peptide, while the standard peptide […] was used to further test the specificity of the clones. Supernatant was collected from the hybridoma cells and purified using HiTrap affinity columns (GEHealthcare Life Science, Little Chalfront, Buckinghamshire, UK) according to manufacturer instructions and antibody isotype was determined using Rapid ELISA Mouse monoclonal antibody Isotyping Kit (Invitrogen, Carlsbad, CA, USA) following the manufacturer's protocol.

[2] = molecular target: T1, elongated peptide QRAFNKGPDPG; assay: competitive CLIA, signal inhibition by two-fold diluted peptide
Method: (§1) The development of the competitive chemiluminescence immunoassay (CLIA) included several preliminary optimizing experiments where reagents, concentrations, incubation-time and -temperature were analysed by several tests. The PRO-C9 competitive ELISA procedure was as follows: A 96-well streptavidin-coated white microplate (Greiner Bio-One, Kremsminster, Austria) was coated with 5 ng/mL biotinylated synthetic peptide (Biotin-[…] SEQ ID No. 18) dissolved in assay buffer (10 mM phosphate buffered saline (PBS), 1% bovine serum albumin, 0.1% Tween-20, 0.36% Bronidox, 4 g/L NaCl, adjusted to pH 7.4 at 20° C.) and incubated for 30 min at 20° C. with constant shaking (300 rpm) in darkness.
(§2) Next, 20 μL/well of standard peptide (100 ng/mL) and samples were added to the appropriate wells, followed by the addition of 100 μL/well of HRP-labelled antibody diluted in assay buffer to the concertation of 100 ng/mL and incubated for 20 h at 4° C. with constant shaking (300 rpm) in darkness. After each incubation step, wells were washed with standard washing buffer (20 mM Tris, 50 mM NaCl, pH 7.2). […] The relative light units were measured at all wavelengths within 5 min on a microplate luminometer reader (SpectraMax M5, Molecular Devices, CA, USA).
(§3) Two-fold dilutions of four human serum samples were used to assess linearity. Linearity was calculated as a percentage of recovery of the undiluted sample. […]

[3] = molecular target: T2, truncated peptide QRAFNKGPD; assay: as above
Method: as §1, §2, §3

[4] = molecular target: T3, non-sense coating and standard peptide …; assay: competitive CLIA, non-sense peptide tested as free standard and as coater
Method: as §1, §2, §3

[5] = molecular target: B1; assay: competitive CLIA: free standard peptide against coated Biotin-… for HRP-labelled antibody
Method: Next, 20 μL/well of standard peptide (100 ng/mL) and samples were added to the appropriate wells, followed by the addition of 100 μL/well of HRP-labelled antibody diluted in assay buffer to the concertation of 100 ng/mL and incubated for 20 h at 4° C. with constant shaking (300 rpm) in darkness. After each incubation step, wells were washed with standard washing buffer (20 mM Tris, 50 mM NaCl, pH 7.2). The chemiluminescence substrate (Roche, BM Chemiluminescence ELISA substrate (POD), Basel, Switzerland) working solutions were mixed 15 min before use and 100 μL/well were added to plate and incubated for 3 min at 20° C. with constant shaking (300 rpm) in darkness. The relative light units were measured at all wavelengths within 5 min on a microplate luminometer reader (SpectraMax M5, Molecular Devices, CA, USA).
Accuracy of the assay was measured in healthy human serum samples spiked with standard peptide and a serum sample with a known high PRO-C9 concentration and calculated as the percentage recovery of the measured value and the expected concentration of the peptide or the serum sample with high PRO-C9 plus the concentration of the analyte in serum. […] Recovery percentage was calculated with the normal serum sample as reference. […] The interference was calculated as the percentage recovery of the analyte in non-spiked serum. […]

| binding result [1] | binding result [2] | binding result [3] | binding result [4] | IC50 [5] [ng/mL] | Binder |
| --- | --- | --- | --- | --- | --- |
| binds | no binding | no binding | no binding | – | B1 |
| – | – | – | – | 3.62 | B2 |
